Results published in patent publication US20020058798A1 (YEDA RESEARCH AND DEVELOPMENT, published 2002).

Assays:
Mouse Fas-IC, full = biological target: T1, Mouse Fas-IC, full (mouse, UniProt P25446 187-327); assay: yeast two-hybrid beta-galactosidase filter assay (SFY526); row = Gal4 DNA-binding-domain hybrid, column = activation-domain hybrid; ++ = strong color within 30 min
T1 construct: domain: FAS-IC (intracellular domain); also called mFAS-IC
T1 sequence (looked up): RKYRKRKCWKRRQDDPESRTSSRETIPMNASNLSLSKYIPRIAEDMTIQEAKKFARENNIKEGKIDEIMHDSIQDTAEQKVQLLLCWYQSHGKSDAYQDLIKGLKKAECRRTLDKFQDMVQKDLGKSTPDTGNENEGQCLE

Mouse Fas-IC 197-306 = biological target: T2, Mouse Fas-IC 197-306 (mouse, UniProt P25446 218-327); assay: as above
T2 construct: range 197-306
T2 sequence (looked up): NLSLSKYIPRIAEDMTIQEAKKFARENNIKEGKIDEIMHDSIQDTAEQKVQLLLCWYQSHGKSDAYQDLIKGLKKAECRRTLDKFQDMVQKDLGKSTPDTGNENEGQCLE

[1] = biological target: the molecule itself; assay: as above
[2] = biological target: T3, GST-mFAS-IC I225A (GST fusion with FAS-IC containing an Ile to Ala replacement at position 225) (mouse, UniProt P25446 187-327); assay: GST pull-down: 35S-labeled FLAG-HF1 from HeLa extracts on GST fusion bound to glutathione beads, SDS-PAGE and autoradiography
T3 construct: also called GST-FAS-IC with a replacement at the lpr^cg mutation site; not shown: Glutathione S-transferase (GST)
T3 sequence (looked up): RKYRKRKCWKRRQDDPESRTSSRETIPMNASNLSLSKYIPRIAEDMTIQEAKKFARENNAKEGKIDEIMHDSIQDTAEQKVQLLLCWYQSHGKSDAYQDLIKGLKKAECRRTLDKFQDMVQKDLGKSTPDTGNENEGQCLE
Text: The [³⁵S] labeled proteins of the HeLa cells including the labeled FLAG-MORT1 fusion protein having been first extracted were subjected to interaction with the various GST and GST-FAS-IC proteins (bound to glutathione beads) and then to SDS-PAGE. As controls in all of the interaction experiments, extracts of HeLa cells transfected with luciferase were subjected to interactions with the GST and GST-FAS-IC fusion proteins and SDS-PAGE. FIGS. 1A and B are also described in Example 1.
Expression of HF1 (MORT-1) molecules fused at their N terminus with the FLAG octapeptide (FLAG-HF1) yielded in HeLa cells proteins of four distinct sizes—about 27, 28, 32, and 34 kD. […] Thus the in vitro interaction was evaluated by assessing, by autoradiography following SDS-PAGE, the binding of [³⁵S] metabolically labeled HF1, produced in transfected HeLa cells as a fusion with the FLAG octapeptide (FLAG-HF1), to GST, GST fusion with the human or mouse FAS-IC (GST-huFAS-IC, GST-mFAS-IC) or to GST fusion with FAS-IC containing an Ile to Ala replacement mutation at position 225.

SNF1 = biological target: T4, SNF1 (UniProt P06782 1-633, limits assumed); assay: yeast two-hybrid beta-galactosidase filter assay (SFY526); row = Gal4 DNA-binding-domain hybrid, column = activation-domain hybrid; + = strong color within 90 min; positive control
T4 sequence (looked up): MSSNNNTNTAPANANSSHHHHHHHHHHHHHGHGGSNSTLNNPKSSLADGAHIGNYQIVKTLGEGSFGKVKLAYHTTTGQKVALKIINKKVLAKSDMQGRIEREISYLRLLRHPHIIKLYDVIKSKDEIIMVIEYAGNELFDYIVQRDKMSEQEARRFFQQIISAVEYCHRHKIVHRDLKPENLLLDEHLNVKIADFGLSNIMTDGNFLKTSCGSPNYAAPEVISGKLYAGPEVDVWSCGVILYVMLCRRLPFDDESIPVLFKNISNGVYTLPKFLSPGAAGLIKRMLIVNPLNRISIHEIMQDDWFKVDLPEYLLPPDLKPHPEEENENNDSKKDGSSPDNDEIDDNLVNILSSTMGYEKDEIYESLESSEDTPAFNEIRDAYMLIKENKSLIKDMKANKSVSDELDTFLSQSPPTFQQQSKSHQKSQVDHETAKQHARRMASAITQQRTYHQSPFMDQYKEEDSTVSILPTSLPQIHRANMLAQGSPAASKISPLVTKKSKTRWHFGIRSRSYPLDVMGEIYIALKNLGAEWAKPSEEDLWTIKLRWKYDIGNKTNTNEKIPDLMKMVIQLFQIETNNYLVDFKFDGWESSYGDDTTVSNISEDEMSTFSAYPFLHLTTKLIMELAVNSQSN

B1: MORT-1 (full) (other)
chain: VNQAPECRFGGGILGPLGKRRDLARASEPRTEGARRAGPQPRPLADPAMDPFLVLLHSVSSSLSSSELTELKFLCLGRVVKRKLERVQSGLDLFSMLLEQNDLEPGHTELLRELLASLRRHDLLRRVDDFEAGAAAGAAPGEEDLCAAFNVICDNVGKDWRRLARQLKVSDTKIDSIEDRYPRNLTERVRESLRIWKNTEKENATVAHLVGALRSCQMNLVADLVQEVQQARDLQNRSGAMSPMSWNSDASTSEAS
notes: The Gal4 part is not written as a piece; Met 49 is a possible translation start; also called HF1; HF-1
binding result (Mouse Fas-IC, full): binds
binding result (Mouse Fas-IC 197-306): binds
binding result [1]: binds

B2: FLAG-MORT1 fusion protein (MORT-1 N-linked to the FLAG octapeptide) (other)
chain: VNQAPECRFGGGILGPLGKRRDLARASEPRTEGARRAGPQPRPLADPAMDPFLVLLHSVSSSLSSSELTELKFLCLGRVVKRKLERVQSGLDLFSMLLEQNDLEPGHTELLRELLASLRRHDLLRRVDDFEAGAAAGAAPGEEDLCAAFNVICDNVGKDWRRLARQLKVSDTKIDSIEDRYPRNLTERVRESLRIWKNTEKENATVAHLVGALRSCQMNLVADLVQEVQQARDLQNRSGAMSPMSWNSDASTSEAS
modifications: metabolically labeled with [35S]methionine (and [35S]cysteine for the co-immunoprecipitations)
notes: also called FLAG-HF1; HF1-FLAG; not shown: FLAG octapeptide (Eastman Kodak)
binding result [2]: no binding

B3: SNF4 (other, UniProt P12904 1-322, looked up)
chain: MKPTQDSQEKVSIEQQLAVESIRKFLNSKTSYDVLPVSYRLIVLDTSLLVKKSLNVLLQNSIVSAPLWDSKTSRFAGLLTTTDFINVIQYYFSNPDKFELVDKLQLDGLKDIERALGVDQLDTASIHPSRPLFEACLKMLESRSGRIPLIDQDEETHREIVVSVLTQYRILKFVALNCRETHFLKIPIGDLNIITQDNMKSCQMTTPVIDVIQMLTQGRVSSVPIIDENGYLINVYEAYDVLGLIKGGIYNDLSLSVGEALMRRSDDFEGVYTCTKNDKLSTIMDNIRKARVHRFFVVDDVGRLVGVLTLSDILKYILLGSN
binding result (SNF1): binds
